Experimental data from publication PMC12260524, “Identification of a VPS29 isoform with restricted association to Retriever and Retromer accessory proteins through autoinhibition” (Proceedings of the National Academy of Sciences of the …, 2025).

Molecular target: T1, GST-tagged VPS29C (Homo sapiens, UniProt Q9UBQ0)
T1 construct: made in house; host or cells: E. coli BL21 (DE3)
Assay: Isothermal titration calorimetry (ITC) of peptides with GST-VPS29C
Assay type: binding
Conditions: 25 °C, single-site model
Protocol: All the bacterial constructs were expressed in BL21 (DE3) competent cells using the standard autoinduction method as described previously. Cell cultures were harvested by centrifugation at 6,000 × g for 5 min at 4 °C and the cell pellets were then stored at −80 °C until cell lysis. To obtain individual Retromer subunit including VPS26A, GST-VPS29B, and GST-VPS29C, the frozen cell pellet was resuspended in protein buffer (50 mM Tris-HCl pH 7.5, 200 mM NaCl, 2 mM β-mercaptoethanol) supplemented with 50 μg/mL benzamidine, 100 units of DNase I. In all cases, the resuspended cells were lysed through a Constant System TS-series high pressure cell disruptor. The soluble homogenate cleared by centrifugation was loaded onto either Talon resin (Clontech) for His-tagged VPS26A or Glutathione Sepharose (GE Healthcare) for GST-tagged VPS29B/VPS29C. The fusion-tagged containing proteins eluted from the resin were then further purified using size exclusion chromatography (SEC) on a HiLoad® 16/600 Superdex 200 or Superdex 75 column equilibrated with protein buffer. For Retromer, the soluble homogenate was first loaded onto Talon resin (Clontech) followed by glutathione Sepharose (GE healthcare) to obtain the correct stoichiometry ratio of the Retromer complex. Removal of the GST tag from the constructs was performed using an on-column cleavage approach with PreScission protease. The fusion tag free protein was further purified using SEC on a HiLoad® 16/600 Superdex 200 column as described above. Protein integrity was validated using SDS-PAGE gel and concentration was measured using Nanodrop at OD280.
All microcalorimetry experiments were carried out at 25 °C using a PEAQ ITC (Malvern, UK) in protein buffer. […] In the macrocyclic peptide experiment, the equivalent percentage (v/v) of DMSO was added into the target protein to avoid buffer mismatch. All ITC experiments were performed with a single injection of 0.4 μL followed by a series of 12 injections of 3.2 μL each, spaced 180 s apart, and stirred at 750 rpm. To calculate the heat exchange of interactions, the observed peaks were integrated with the subtraction of heat of dilution from the background. The thermodynamic parameters including Kd, ΔH, ΔG, and −TΔS were obtained by fitting and normalizing the data to a single-site binding model using Malvern software package. The stoichiometry was adjusted initially, and if the value was near 1, N was set to exactly 1.0 for computation. To ensure the data were reproducible, each experiment was run at least twice.

[1] = 300 μM peptide into 10 μM GST-VPS29C

| Substance | -TΔS [1] [kcal/mol] | ΔG [1] [kcal/mol] | ΔH [1] [kcal/mol] | Kd (300 μM peptide titrated into 10 μM GST-VPS29C, protein buffer (50 mM Tris-HCl pH 7.5, 200 mM NaCl, 2 mM β-mercaptoethanol), each experiment run at least twice) |
| --- | --- | --- | --- | --- |
| VPS35L 16-38: natural peptide of the amino-terminal region of VPS35L containing a Pro-Leu motif (EFASCRLEAVPLEFGDYHPLKPI) | 4.26 ± 2.04 | -5.26 ± 0.15 | -9.54 ± 2.50 | – |
| VPS35L 28-37: natural peptide of the amino-terminal region of VPS35L containing a Pro-Leu motif (EFGDYHPLKP) | – | – | – | No binding detected |
